Residue numbers refer to the chain shown, from its start. Names may count otherwise.

Data set [1] concerns the molecule itself. Put plainly: 15N-TROSY HSQC NMR (self-association of the RING domain); sample concentration is not printed on the sheet. As for the experimental part: NMR spectroscopy. All NMR experiments were performed in 50 mM Sodium Phosphate (pH 7.5), 150 mM NaCl, 1 mM TCEP, 10% (v/v) D₂O, 0.04% (w/v) NaN₃, and the data collected at 298K on a Bruker Avance 700-MHz spectrometer equipped with a cryoprobe. Backbone assignments were carried out using standard TROSY triple resonance NMR experiments (HNCO, HN(CA)CO, HN(CO)CA, HNCA, HNCACB, and HN(CO)CACB). Protein concentrations for each experiment are shown in the corresponding figures or noted in figure legends. The NMR data were processed using NMRPipe and spectra evaluated using NMRFAM-Sparky.

Data set [2] deals with the molecule itself. Briefly: sedimentation equilibrium analytical ultracentrifugation, monomer-dimer self-association model.
Experimental: Analytical Ultracentrifugation. Sedimentation velocity experiments were performed with a Beckman Optima XL-I analytical ultracentrifuge (Beckman Coulter, Indianapolis, IN) equipped with a 4-hole AnTi-60 rotor and 2-channel centerpiece cells. Samples were in a buffer containing 50 mM Tris (pH 7.5), 150 mM NaCl, and 1 mM TCEP. Sedimentation velocity experiments were carried out at 20° C. and data collection performed in the intensity mode at 280 nm. […] All c(S) distributions were calculated with fitted frictional ratios (f/f₀) and meniscus positions were all fitted with a maximum entropy regularization cutoff of 0.95. Sedimentation equilibrium experiments were carried out using six-channel centerpieces, each chamber containing 110 μL samples. Equilibrium experiments were conducted at 20° C. and collection of data performed in the intensity mode at 280 nm and 230 nm. […] Equilibrium distributions were fitted to a monomer-dimer self-association model.

B1: R1-I77R, RING domain construct of rhesus monkey TRIM5alpha with the I77R mutation (enzyme, UniProt Q0PF16 2-90, looked up)
chain: ASGILLNVKEEVTCPICLELLTEPLSLHCGHSFCQACITANHKKSMLYKEGERSCPVCRISYQPENIQPNRHVANRVEKLREVKLSPEE
notes: range 2-90; Tags were removed by TEV protease
On to B1, for which, in data set [1], the binding result is reported as “no binding”.

B2: R1-WT, monomeric RING domain construct of rhesus monkey TRIM5alpha (enzyme, UniProt Q0PF16 2-90, looked up)
chain: B1 chain with R76I
notes: range 2-90; Expressed with N-terminal 6His-GB1-TEV tags that were removed by TEV protease; also called isolated RING monomer
Broadly, the Kd is the equilibrium constant for the complex coming apart. The low end stands for a tighter complex, the high end for a looser complex. For the protein B2, the Kd in data set [2] was ~60 µM.

The values above are taken from US20260185137A1 (University of Texas, published 2026).
